From the RNAGym collection of RNA variant scans (doi:10.7554/elife.80360)

B1: HDV Ribozyme (parent)
chain: GGCCGGCAUGGUCCCAGCCUCCUCGCUGGCGCCGGCUGGGCAACAUUCCGAGGGGACCGUCCCCUCGGUAAUGGCGAAUGGGACCCA

Variants of: B1
Assay: self-cleavage, relative activity (ratio to wild type); higher = more cleavage; co-transcriptional

In order of rising self-cleavage:
1. C75A A83G  0.0567
2. G73C G82U  0.0707
3. C75A C84G  0.0707
4. A77C G82U  0.0755
5. C75G U79G  0.0791
6. C75A A78U  0.0852
7. G74C G81A  0.0875
8. A78C C85U  0.0923
9. G76C G80C  0.093
10. C75G G80U  0.104
11. A78C G82A  0.106
12. A78C C84G  0.11
13. C75G G80A  0.11
14. A78C U79G  0.113
15. G73U G81C  0.115
16. G73U A78U  0.119
17. C75G U79A  0.123
18. U79G A83G  0.138
19. C75A A83U  0.151
20. C75A G82A  0.151
21. A78C U79C  0.153
22. A78C C84A  0.156
23. A78C G81A  0.17
24. G73U A78C  0.173
25. G73C G82C  0.175
26. G73C G82A  0.175
27. G74C C84A  0.177
28. G73U G81A  0.178
29. C75A A83C  0.181
30. G74U A78G  0.185
31. G74C A83U  0.185
32. A77U G81A  0.185
33. U79G C84G  0.185
34. A77C C85U  0.192
35. A78C C84U  0.196
36. G74C G81C  0.196
37. U79A G80C  0.204
38. G74A A83G  0.205
39. G80C A87G  0.211
40. G73U G76U  0.212
41. A78C G82U  0.212
42. G76A G82C  0.214
43. U79C C84G  0.214
44. A78U A87G  0.226
45. G74A A83C  0.232
46. U79A G80A  0.234
47. G80C A87C  0.237
48. A77U G81U  0.237
49. G73C G81U  0.259
50. A78C C85A  0.277
51. G74C A83C  0.295
52. A78U A87C  0.31
53. G74U A77G  0.312
54. A77C C84G  0.317
55. G73U A78G  0.332
56. U79C C84U  0.332
57. G76A G82A  0.35
58. U79G C84A  0.38
59. G76C G80A  0.394
60. G73U C86U  0.448
61. A78G A87C  0.452
62. G74U G76A  0.453
63. A77U C85A  0.514
64. A78G C84U  0.53
65. G73U C86A  0.543
66. A78G C84A  0.571
67. G76A G82U  0.601
68. G76U C86A  0.615
69. A77G C84U  0.631
70. A77U A87U  0.785
71. G76A U79A  0.831
72. U79A A87C  0.849
73. G76C C86A  0.854
74. A78G A87U  0.862
75. G76A C85A  0.904
76. G76A C84A  0.958
77. G76A C85G  0.962
78. G76C C86G  0.971
79. U79A A87U  0.98
80. G76U C85A  1.05
81. G76A C86G  1.08
82. G76U C86G  1.09
83. G76U C85G  1.16
84. G76U C85U  1.24
